According to the supplement of paper PMC10567573:
± gives the standard deviation.

Assay: protein stability index of a GFP-peptide fusion (GPS, HEK-293T) (PSI 1-6); higher = more stable
[1] = treatment: DMSO, c terminus: a fixed tail appended
[2] = treatment: MLN4924 1 uM, 8 h, c terminus: a fixed tail appended
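Further: 24-mer peptide tiles fused after GFP, lentivirally expressed, FACS-sorted into six equal bins by GFP/DsRed ratio, decoded by Illumina sequencing, PSI is the read-weighted mean bin number.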

Row | Sequence | protein stability index [1] | protein stability index [2] | protein stability index (treatment: DMSO, c terminus: native) | protein stability index (treatment: MLN4924 1 uM, 8 h, c terminus: native)
1 | LREERGHPLHPRHRKAVHLRTRGR [C6orf223] | 4.08 ± 0.23 | 4.06 ± 0.36 |  | 
2 | ERIRLLRQKREAAARKKYNLLQDS [C18orf25] | 3.25 ± 0.34 | 3.6 ± 0.36 |  | 
3 | VISQLEQGTELWVAERGTTQGCHP [ZNF8] | 3.96 ± 0.29 | 3.99 ± 0.45 |  | 
4 | GKTPVCHQCHKVIRGRYLVALGHA [PDLIM7] | 2.1 ± 0.1 | 2.72 ± 0.33 |  | 
5 | TREWTQLKPNNLSCDLPEERYRHE [KLHDC10] | 4.61 ± 0.3 | 4.71 ± 0.13 |  | 
6 | TQTWCTQSWNNQAWNSPFYNCGEE [NANOGP8] | 3.07 ± 0.25 | 3.2 ± 0.12 |  | 
7 | TDQLEFTVEPRLLVADLLYWKDTR [RTN2] | 2.43 ± 0.23 | 2.54 ± 0.33 |  | 
8 | SNSRQLKWLSCGFMLEIVTPTSLS [FBXO33] | 3.39 ± 0.73 | 2.83 ± 0.67 |  | 
9 | TGTSKRYQLCRVQECPPDGRSFRE [ADAMTSL2] | 2.58 ± 0.71 | 3.09 ± 0.62 |  | 
10 | DKSPSTVRDQGPSIPLTPGDTPIR [FBF1] | 5.08 ± 0.18 | 5.26 ± 0.18 |  | 
11 | AAEQAERSQSSIVPEEEQAANKGE [SMARCE1] | 5.51 ± 0.3 | 5.54 ± 0.19 |  | 
12 | QSLRCDLIRYICGVVHPSNEVLSS [INTS3] | 2.33 ± 0.34 | 2.19 ± 0.45 |  | 
13 | YIIQQGGWGTVFSLESEEEEYPGI [BCL2L13] | 2.46 ± 0.36 | 2.9 ± 0.36 |  | 
14 | MEKGPVRAPAEKPRGARCSNGFPE [GCH1] | 4.46 ± 0.29 | 4.58 ± 0.25 |  | 
15 | GDIIRLEHKETSRNLHSHYHEAPM [POMT2] | 3.35 ± 0.13 | 3.57 ± 0.12 |  | 
16 | DDPATLGPHLGLRGVPQSTAASS [DYRK1B] |  |  | 3.28 ± 0.28 | 3.29 ± 0.085
17 | RYESLTDPSKLDSGKELKIDIIPN [HSP90AB1] | 4.33 ± 0.2 | 4.31 ± 0.24 |  | 
18 | KIIQLGLTFMNEQGEYPPGTSTWQ [CNOT7] | 2.23 ± 0.2 | 2.19 ± 0.18 |  | 
19 | HYLIFDLVTGGELFEDIVAREYYS [CAMK2A] | 2.71 ± 0.72 | 2.54 ± 0.66 |  | 
20 | IEKCTTPLSDDHDEKYGVPSLEEL [CRY1] | 5.11 ± 0.25 | 5.14 ± 0.18 |  | 
21 | NFGLRLVVQRCSGQKWMIRNWIKH [GALNT9] | 2.67 ± 0.32 | 2.06 ± 0.59 |  | 
22 | TIDMGPQLKVVERTRTATMLCAAS [PTPRD] | 3.18 ± 0.23 | 3.49 ± 0.21 |  | 

Row | Sequence | protein stability index [1] | protein stability index [2] | protein stability index (treatment: DMSO, c terminus: native) | protein stability index (treatment: MLN4924 1 uM, 8 h, c terminus: native)
23 | PYYLRSFLVVLKTVLENEDDMLLF [FAN1] | 2.27 ± 0.36 | 2.26 ± 0.25 |  | 
24 | MSASLNYKSFSKEQQTMDNLEKQL [TRIM55] | 4.71 ± 0.23 | 4.47 ± 0.14 |  | 
25 | LEIDSGVITLDPQTASRSLVLSED [TRIM15] | 4.69 ± 0.19 | 4.74 ± 0.32 |  | 
26 | LLAAREDLSKIIRTSSGTSREKTA [FAM98B] | 4.05 ± 0.15 | 4.23 ± 0.24 |  | 
27 | KQGELPREVRRAQARLLNPSATRA [NOP53] | 4.42 ± 0.46 | 4.47 ± 0.19 |  | 
28 | NGAKELWFFLQSELKKLKNLEGNE [FUT8] | 2.45 ± 0.47 | 2.48 ± 0.33 |  | 
29 | LKYVRGLLQTEPQNNQAKELERLI [FIS1] | 2.89 ± 0.29 | 3.02 ± 0.29 |  | 
30 | TLKEAYVQKLVKVCTDTDRWSLIS [TENT5C] | 2.58 ± 0.4 | 2.4 ± 0.41 |  | 
31 | PTQVPAAEDYLTWKEWGFTGVQEV [SPAG8] | 3.5 ± 0.24 | 3.59 ± 0.31 |  | 
32 | SLDGKAIKVEQATKPSFESGRRGP [RBMX] | 4.84 ± 0.4 | 4.94 ± 0.35 |  | 
33 | HMEDPRRAGKMLMTLPLLRQTSTK [ESRRG] | 3.63 ± 0.16 | 3.7 ± 0.28 |  | 
34 | LEAEVKDTTRVENLIKSENYGKIL [R3HDM1] | 4.3 ± 0.59 | 4.43 ± 0.42 |  | 
35 | PFNQSTFNNVVEQNFKNRESYPED [DLC1] | 4.62 ± 0.14 | 4.66 ± 0.16 |  | 
36 | GLSIPSHSSELTEQKLRACLEGSI [RPAIN] | 3.63 ± 0.39 | 3.53 ± 0.24 |  | 
37 | GGGREPQGLAEKSPLQTIGEEQTQ [WDR41] | 5.31 ± 0.26 | 5.58 ± 0.17 |  | 
38 | NNLLSAPPPDVTQLTPPSHDLTDN [ANKRD17] | 5.12 ± 0.28 | 5.18 ± 0.18 |  | 
39 | TLMTMAIRIIDRALKEDFGFKHRL [PRIM1] | 2.99 ± 0.62 | 2.9 ± 0.54 |  | 
40 | KNWWVRGILTLAMIAFFFIIIYLG [CDS2] | 3.07 ± 0.36 | 2.85 ± 0.52 |  | 
41 | INQVLLFLLIVTLCVILYKKVHKG [GLT8D2] | 3.12 ± 0.29 | 3.04 ± 0.9 |  | 
42 | KIRRGQFCIPEHISPKARCLIRSL [TRIB1] | 2.29 ± 0.48 | 2.29 ± 0.4 |  | 
43 | YFSQVPVLASFILDDGEIDEIRWK [IQUB] | 2.25 ± 0.72 | 2.22 ± 0.28 |  | 
44 | YPDQSPSEDWTMEERFRPLTFHGL [CLCN6] | 3.23 ± 0.18 | 3.37 ± 0.18 |  | 

Row | Sequence | protein stability index [1] | protein stability index [2] | protein stability index (treatment: DMSO, c terminus: native) | protein stability index (treatment: MLN4924 1 uM, 8 h, c terminus: native)
45 | PNTAVSVHVSESSDDDEEEEENIG [ACBD3] | 5.5 ± 0.3 | 5.63 ± 0.12 |  | 
46 | STLGTLQPPPAPPKKIMPEAHSHY [PPFIA4] | 4.02 ± 0.18 | 4.24 ± 0.1 |  | 
47 | EAGASLVDQKLELNIVPRTKVVYL [PI4K2A] | 2.29 ± 0.26 | 2.34 ± 0.47 |  | 
48 | LIHPELNEGLMKWENRHEGVFKFL [ELF3] | 2.36 ± 0.15 | 2.48 ± 0.19 |  | 
49 | KPGFLAPRDLPKHTPLISKSQSLR [RASAL3] | 3.61 ± 0.2 | 3.8 ± 0.47 |  | 
50 | ESEEEGPWEPPVLPILTWPVLQSR [HDAC6] | 4.5 ± 0.17 | 4.37 ± 0.15 |  | 
51 | MAPLQPSTSRAHKLPSRRQPGLLH [FAM189A2] | 3.62 ± 0.18 | 3.72 ± 0.28 |  | 
52 | NGWTCLHWACKRNHGQVVSYLLKS [ANKRD40] | 2.72 ± 0.46 | 2.29 ± 0.43 |  | 
53 | DAFVKIVRHEGTRTLWSGLPATLV [SLC25A39] | 2.6 ± 0.61 | 2.03 ± 0.22 |  | 
54 | LASIFQLAMWTTALLHQAETLQPS [TMEM175] | 3.13 ± 0.29 | 3.13 ± 0.75 |  | 
55 | AKALNRPPTYPTKYFGCELGAQTQ [EIF5] | 2.71 ± 0.23 | 3.15 ± 0.13 |  | 
56 | STLKEVKPTVFIGVPQIWEKIHEM [ACSBG2] | 2.1 ± 0.24 | 2.27 ± 0.31 |  | 
57 | LLFCCQCVDVVFYNPDLKKVVEAH [RHOBTB3] | 2.4 ± 0.14 | 3.01 ± 0.52 |  | 
58 | SCPEGDASECPQATNAKDSGCSSP [PPEF2] | 5.63 ± 0.34 | 5.7 ± 0.27 |  | 
59 | KHSTIFDVGENLTVPDEFTVEERQ [SLC25A25] | 5.07 ± 0.22 | 4.98 ± 0.22 |  | 
60 | VDSAEYSCLKAIVLFTSDACGLSD [NR2F2] | 2.23 ± 0.38 | 2.25 ± 0.31 |  | 
61 | MASCPDSDNSWVLAGSESLPVETL [PBXIP1] | 4.31 ± 0.27 | 4.41 ± 0.22 |  | 
62 | DYRQEQPETFWIQRAPQLPTWWPL [SPAG8] | 2.48 ± 0.15 | 2.57 ± 0.19 |  | 
63 | VLLIKDRTSKSRGFAFITFENPAD [RBMY1A1] | 2.83 ± 0.88 | 3.06 ± 1.5 |  | 
64 | EDHIDDAKYCGHLYGLGSGSSYVQ [CNOT7] | 3.38 ± 0.16 | 3.41 ± 0.26 |  | 
65 | VPVPPAAAPPPPATPIVPVVPPTP [BRD3] | 4.75 ± 0.43 | 4.75 ± 0.16 |  | 
66 | ENRVSTLRVSPDGTAFCSGSWDHT [GNB5] | 3.95 ± 0.14 | 3.9 ± 0.19 |  | 

Row | Sequence | protein stability index [1] | protein stability index [2] | protein stability index (treatment: DMSO, c terminus: native) | protein stability index (treatment: MLN4924 1 uM, 8 h, c terminus: native)
67 | FKDSAGKSPTGLKLKNDTENHQPV [ZNF75A] | 4.88 ± 0.22 | 5.03 ± 0.18 |  | 
68 | EYVLLKALALANSDSVHIEDAEAV [ESRRA] | 3.36 ± 0.33 | 3.55 ± 0.37 |  | 
69 | GQEYAAKIINTKKLSARDHQKLER [CAMK2D] | 3.96 ± 0.58 | 3.82 ± 0.096 |  | 
70 | ETLEASVGPRETEEKVRDLLWAKF [TOR1AIP2] | 3.98 ± 0.22 | 3.92 ± 0.3 |  | 
71 | LTSELDPEKEQEIETIKIIETEDQ [MIA2] | 4.84 ± 0.051 | 5.46 ± 0.33 |  | 
72 | KAFGVGVAYRSLGRFEQLGKTAAS [FSD1] | 2.77 ± 0.3 | 2.69 ± 0.24 |  | 
73 | WIKEEAAERYLYFPNWAMALLITL [SLC6A17] | 2.67 ± 0.79 | 2.81 ± 0.57 |  | 
74 | GLRRVLDELTLARTDLEMQIEGLN [KRT15] | 2.71 ± 0.3 | 2.66 ± 0.19 |  | 
75 | GSPFGLEEPQWVPDKECRRCMQCD [ZFYVE21] | 4.1 ± 0.29 | 4.07 ± 0.28 |  | 
76 | GRDALLDQIRQGIQLKSVADGQES [WASL] | 5.43 ± 0.36 | 5.22 ± 0.63 |  | 
77 | ISQQDPESDSQGQGNGLFYSSGPQ [ZC2HC1C] | 4.83 ± 0.48 | 5.08 ± 0.19 |  | 
78 | RSHHLEMVIQLLAIMCVSCICWSP [PTGFR] | 3.18 ± 0.26 | 3.14 ± 0.69 |  | 
79 | FVGAGRMAGAIAQGLIRAGKVEAQ [PYCR3] | 2.96 ± 0.52 | 2.9 ± 0.33 |  | 
80 | ELVLCVLVSIRNNRNLQKFSLFGD [FBXO33] | 2.87 ± 0.54 | 2.86 ± 0.34 |  | 
81 | GDFWRMIWEQRSATVVMMTKLEER [PTPRD] | 2.77 ± 0.38 | 2.36 ± 0.18 |  | 
82 | PKLREETAHMLGVRELRIAFREFD [CABP4] | 2.92 ± 0.29 | 3.17 ± 0.29 |  | 
83 | TKKRKTFDSSRQRAEGTDIPTVKP [ZC2HC1A] | 4.86 ± 0.22 | 4.79 ± 0.2 |  | 
84 | DQDGEYCPEVKLKTTGLEEAAEAE [SRPK2] | 5.63 ± 0.3 | 5.81 ± 0.18 |  | 
85 | SHYFKIIEDLRAQIFANTVDNARI [KRT18] | 2.4 ± 0.44 | 2.07 ± 0.24 |  | 
86 | AVVAAGGGSSGQVTSNGSIGRDPP [CLPTM1] | 4.75 ± 0.13 | 4.88 ± 0.26 |  | 
87 | AVAHKTPRCPGSVNEKLPQREGTG [SMOC2] | 5.13 ± 0.47 | 5.33 ± 0.12 |  | 
88 | ILEVLRSSPMVQVDEKGEKVRPSH [LARP4] | 3.61 ± 0.27 | 3.71 ± 0.12 |  | 
